# From paper PMC10570040
# Columns and labels:
# [1] = molecular target: T1, EnfR wild-type (TON_1525) (Thermococcus onnurineus NA1) (UniProt B6YTS4); assay: EMSA; settings: EMSA: 10 mM Tris pH 7.4, 200 mM KCl, 2 mM DTT, 0.2 mM EDTA, 37 C 20 min, ITC: 10 mM Tris-HCl pH 7.4, 200 mM KCl, 1 mM TCEP, 25 C, footprint: 20 mM …
# T1 sequence: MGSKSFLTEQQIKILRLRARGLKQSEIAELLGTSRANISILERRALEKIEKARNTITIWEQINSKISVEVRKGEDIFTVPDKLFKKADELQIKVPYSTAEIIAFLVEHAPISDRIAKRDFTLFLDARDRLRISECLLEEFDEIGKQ
# [2] = molecular target: T1, EnfR wild-type (TON_1525) (Thermococcus onnurineus NA1); assay: DNase I footprinting; settings: EMSA: 10 mM Tris pH 7.4, 200 mM KCl, 2 mM DTT, 0.2 mM EDTA, 37 C 20 min, ITC: 10 mM Tris-HCl pH 7.4, 200 mM KCl, 1 mM TCEP, 25 C, footprint: 20 mM …
Sequence,binding [1],binding [2]
AACAGGGTGTTACATACTTTTATTTTCAATTCTAAGCTTCAAAAAACTCTTTTAAAAGTGAACATCCAATTAGGTTTGGGAAATGGTAAACAAAATTGTAAAAGGGTGTTTTGAACCAAACGTGGGGTGATAGAAAGATGGCATTTAT (double strand) [P1582],binds,–
GAGAGTTTTACTGTCTCTAAATGAAAGGTTCTAATACGGTGGATCGAATAATTTCTTGCGTTTTTATCCGGATCGCCGAACACGATTCCATCTTAAAATCTTTTTGTTTACATTATACGAGGTGATCAACAATGCCAGCTTTTTCCGGTT (double strand) [150-bp codh promoter probe],–,binds
